The source of these data is the Human Domainome abundance scans (Beltran et al. 2025).

± gives the uncertainty stated by the source.

The nature of this data set: abundance fitness (aPCA) (normalised: wild type 0, dead -1); higher = more abundant; growth selection in yeast, the domain comes from the species named. The note with it: Homo sapiens.
“Lipoamide acyltransferase component of branched-chain alpha-keto acid dehydrogenase complex, mitochondrial G193T, P11182”: the abundance fitness was -0.476 ± 0.047.

For “Lipoamide acyltransferase component of branched-chain alpha-keto acid dehydrogenase complex, mitochondrial G193V, P11182”, the abundance fitness was -0.814 ± 0.05.

“Lipoamide acyltransferase component of branched-chain alpha-keto acid dehydrogenase complex, mitochondrial G193W, P11182”: the abundance fitness was -1.06 ± 0.18.

Consider “Lipoamide acyltransferase component of branched-chain alpha-keto acid dehydrogenase complex, mitochondrial G193Y, P11182”, for which the abundance fitness is -1.02 ± 0.26.

For “Lipoamide acyltransferase component of branched-chain alpha-keto acid dehydrogenase complex, mitochondrial G195A, P11182”, the abundance fitness was -0.464 ± 0.044.

Turning to “Lipoamide acyltransferase component of branched-chain alpha-keto acid dehydrogenase complex, mitochondrial G195D, P11182”, the abundance fitness is -0.516 ± 0.12.

In the case of “Lipoamide acyltransferase component of branched-chain alpha-keto acid dehydrogenase complex, mitochondrial G195E, P11182”, the abundance fitness was -0.639 ± 0.073.

In the case of “Lipoamide acyltransferase component of branched-chain alpha-keto acid dehydrogenase complex, mitochondrial G195H, P11182”, the abundance fitness is -0.7 ± 0.1.

Consider “Lipoamide acyltransferase component of branched-chain alpha-keto acid dehydrogenase complex, mitochondrial G195I, P11182”, for which the abundance fitness was -0.867 ± 0.15.

Regarding “Lipoamide acyltransferase component of branched-chain alpha-keto acid dehydrogenase complex, mitochondrial G195K, P11182”, the abundance fitness is -0.566 ± 0.13.

Consider “Lipoamide acyltransferase component of branched-chain alpha-keto acid dehydrogenase complex, mitochondrial G195L, P11182”, for which the abundance fitness is -0.927 ± 0.055.

As to “Lipoamide acyltransferase component of branched-chain alpha-keto acid dehydrogenase complex, mitochondrial G195M, P11182”, the abundance fitness is -0.793 ± 0.16.

On to “Lipoamide acyltransferase component of branched-chain alpha-keto acid dehydrogenase complex, mitochondrial G195N, P11182”, for which the abundance fitness was -0.611 ± 0.12.

As to “Lipoamide acyltransferase component of branched-chain alpha-keto acid dehydrogenase complex, mitochondrial G195P, P11182”, the abundance fitness was -0.682 ± 0.07.

Turning to “Lipoamide acyltransferase component of branched-chain alpha-keto acid dehydrogenase complex, mitochondrial G195Q, P11182”, the abundance fitness was -0.483 ± 0.067.

For the substance “Lipoamide acyltransferase component of branched-chain alpha-keto acid dehydrogenase complex, mitochondrial G195R, P11182”, the abundance fitness was -0.591 ± 0.042.

In the case of “Lipoamide acyltransferase component of branched-chain alpha-keto acid dehydrogenase complex, mitochondrial G195S, P11182”, the abundance fitness was -0.444 ± 0.08.

As to “Lipoamide acyltransferase component of branched-chain alpha-keto acid dehydrogenase complex, mitochondrial G195T, P11182”, the abundance fitness is -0.587 ± 0.066.
